Where “and” joins values, the source holds several entries; their conditions need not be identical. Equal entries are not always repeated.
Each substance was assayed against rabbit muscle G-actin (actin monomers; ATP-G-actin or ADP-G-actin) (rabbit) (UniProt P68135) (assay: shift of the apparent critical concentration of pyrene-actin).

Row | Substance | Kd
1 | MBP-CAS-2C (C-terminal half of CAS-2, residues 208-457, fused to maltose-binding protein) (domain or fragment) | 1000 nM and 950 nM
2 | MBP-CAS-2CΔWH2 (C-terminal half of CAS-2 lacking WH2, residues 275-457, fused to maltose-binding protein) (domain or fragment) | 3600 nM and 2900 nM

Target: rabbit muscle G-actin (actin monomers; ATP-G-actin or ADP-G-actin) (rabbit) (UniProt P68135)
Experiment: as above
Remark: another data set of the same source

Row | Substance | Kd
3 | MBP-CAS-2N (N-terminal half of CAS-2, residues 1-207, fused to maltose-binding protein) (domain or fragment) | 2900 nM and 830 nM
4 | MBP-CAS-2C (C-terminal half of CAS-2, residues 208-457, fused to maltose-binding protein) (domain or fragment) | 1700 nM and 2900 nM
5 | MBP-CAS-2CΔWH2 (C-terminal half of CAS-2 lacking WH2, residues 275-457, fused to maltose-binding protein) (domain or fragment) | 1700 nM and 1200 nM
6 | MBP-CAS-2 (full-length CAS-2, cyclase-associated protein-2, fused to maltose-binding protein) (natural protein) | 830 nM
